The source of these data is a protein production outcome set (Wang et al. 2014).

This data set in a line: label from the status in PepcDB records.

In the case of “RQVTDSDETEELIHLLLDNYAEGKIVKLLFMSENATQPVISQVAKENDVMLNVLHGNLTQTQNGAYGTLYVQVLGTEEAIEASLTQLRQLKVETEVLER”, the protein production entry is on record as “not failed”.

As to “RRKVGVLVDGPNMLRKEFNINLKEIREILSEYGDIKIAKVFLNQYATEKLVEAIENQGFEPIVTSGDVDVRMAVEAMELIYNDSIDAVALVTRDADFKAVLMKAMEMGKETIIIGAEPGFSTALKNSADIAIVLNEDEE”, the protein production entry is on record as “failed”.

With “RRLPTVLLKLRMAQHLQAAVAFVEQGHVRVGPDVVTDPAFLVTRSMEDFVTWVDSSKI”, the protein production result was “not failed”.

In the case of “RSRIDTALNRGRCGLWDWDLSRGRIFWSQSMFTILGLESRNDLLTFGEVNALVKGEDIDLFAIADELMAGRVDHIDHSFQMRHAHGHWIWLRMRCELTQEAGATEKHLIGIAVDITEQKSLAERSVEADLRLRDAIETIPEAFVLWDAENRLVLCNSHFQRL”, the protein production entry was “failed”.

Take “RSRRFAHLQLFAHLELPCWARIRDLLNIGLPIGISILMEGGLFIVTTLLIGRFGTDEIAAHQIALSVAQLCFMIPMGVAEATTVRIGHAVGRCDLLVMRRVAWAGYAIVIGTQTLSASVLLLGYDVIVAAYTDDLVVASLASKLLLFAAIFQFPDGLQMLSSGVLRGMKDTRVPM”: the protein production entry was “failed”.

Consider “RTALRTEYALRQEAQAARKHAEGILASISDGFIALDEQYRFTYVNAAAERLIASTAEELIGKVYWDVYPMMLGTKIEQAYRRAMTERVACEFESYHPPSKRWFELRVAPTNGKSISVYFRDITEQKKAEAALRDINEQLEEQV”, for which the protein production result was “failed”.

Turning to “RTFESVADLAAAAGEKVGQSDWVTITQEEVNLFADATGDHQWIHVDPERAAAGPFGTTIAHGFMTLALLPRLQHQMYTVKGVKLAINYGLNKVRFPAPVPVGSRVRATSSLVGVEDLGNGTVQATVSTTVEVEGSAKPACVAESIVRYVA”, the protein production result was “not failed”.

With “RTHTGEKPYACSHCDKTFRQKQLLDMHFKRYHDPNFVPAAFVCSKCGKTFTRRNTMARHADNCAGPDGVEGEN”, the protein production result is “not failed”.

For the sequence “RYTNILVPVDSSDAAQAAFTEAVNIAQRHQANLTALYVVDDSAYHTPALDPVLSELLDAEAAHAKDAMRQRQQFVATTSAPNLKTEISYGIPKHTIEDYAKQHPEIDLIVLGATGTNSPHRVAVGSTTSYVVDHAPCNVIVIR”, the protein production entry is recorded as “not failed”.

Take “SAAPGPALCLFDVDGTLTAPRQKITKEMDDFLQKLRQKIKIGVVGGSDFEKVQEQLGNDVVEKYDYVFPENGLVAYKDGKLLCRQNIQSHLGEALIQDLINYCLSYIAKIKLPKKRGTFIEFRNGMLNVSPIGRSCSQEERIEFYELDKKENIRQKFVADLRKEFAGKGLTFSIGGQISFDVFPDGWDKRYCLRHVENDGYKTIYFFGDKTMPGGNDHEIFTDPRTMGYSVTAPEDTRRICELLFS”: the protein production entry is reported as “not failed”.

Regarding “SAAPVDLELKKAFTELQAKVIDTQQKVKLADIQIEQLNRTKKHAHLTDTEIMTLVDETNMYEGVGRMFILQSKEAIHSQLLEKQKIAEEKIKELEQKKSYLERSVKEAEDNIREMLMARRAQ”, the protein production result is given as “failed”.

For “SADQIRQSVRHSLKDILMKRLTDSNLKVPEEKAAKVATKIEKELFSFFRDTDAKYKNKYRSLMFNLKDPKNNILFKKVLKGEVTPDHLIRMSPEELASKELAAWRRR”, the protein production entry is given as “not failed”.

Take “SAFQAAAARLGAPVSHDFCAISLSDLMTPWEVIEKRIEAAASADFVTAVYNPRSRDRYWQIHRFRELFLRHRSPSTPVGIVRNVTRKDESVVLTTLGEFDPDSLDMFTMMLVGNSTTF”: the protein production result was “not failed”.

Regarding “SAKNAYTKLGTDDNAQLLDIRATADFRQVGSPNIKGLGKKAVSTVYNGEDKPGFLKKLSLKFKDPENTTLYILDKFDGNSELVAELVALNGFKSAYAIKDGAEGPRGWLNSSLPWIEPKKT”, the protein production entry was “not failed”.

On to “SARHFGMALAPWDVMGGGRFQSKKAMEERRKNGEGIRSFVGASEQTDAEIKISEALAKIAEEHGTESVTAIAIAYVRSKAKNFFPSVEGGKIEDLKENIKALSIDLTPDNIKYLESIVPFDIGFPNNFIVLNSLTQKYGTNNV”, for which the protein production entry was “not failed”.

As to “SASRGKTETSKLKQNLEEQLDRLMQQLQDLEECREELDTDEYEETKKETLEQLSEFNDSLKKIMSGNMTLVDELSGMQLAIQAAISQAFKTPEVIRLFAKKQPGQLRTRLAEMDRDLMVGKLERDLYTQQKVEILTALRKLGEKLTADDEAFLSANAGAILSQFEKVSTDLGSGDKILALASFEVEKTKK”, the protein production entry is recorded as “not failed”.

For “SDDDNPTVDPANIDYTPENASSWHNYMRNVAALLKTDATNLYNAWNSSYKGGESYASLFKAHSGSPYASALSCVEEIVDKCAEIANEVGTAKIGDPYNLYKAGNTEEALYAVESWYSWHSRDDYTNNIYSIRNAYYGSLDGNINANSLSTVIAGANSSLDTKIKNAIQKAAKAIQDIPQPFRNHIPSNETVAAMDACAELESILKNDLKSYIANNSNNINTDAVLNPVVTQYVDAVVVPTYKSLKEKNDALYNAVIVLADNPSNSAFETACDAWITAREPWEKSEAFLFGPVDEMGLDPNMDSWPLDQNAIVQILNSQSWSDLEWSEGDDEAAVESAQNVRGFHTLEFLLYKNGEPRKVQ”, the protein production entry was “not failed”.

In the case of “SDNEFPDFDYQTVYFANQYGLRTIELGESEFVDNTLDNQHKMVIKAAWGGGYTNRNNVVINFKVDESLCDNLYFKDTDQPLVPMPASYYTLASDRIAIPKGQIMAGVEVQLTDDFFADEKSISENYVIPLLMTNVQGADSILQGKPVVENPVLTNAGDWSILPQNFVLYAVKYVNPWHGEYLRRGIDHATVAGTSKDIIRHEQFVENDEVVNISTKSMKDNLLTLKTKDESGKDISYTVRLSFAEDGSCTVHSGSQNVVVSGSGKFVSKGEKNSLGGKDRNAIYLDYTVNLTDNNIQLATKDTLVLRTRNVYGGKSLEVVRK”, the protein production result is given as “not failed”.

“SDPDADRIGVAVRNNEGRMVLINGNEICSLLIYYSIMRRKELGDLHPDDYIVKTIVTTELIRDIAKKEHVSMFDCYTGFKWIAAVIRENEGRRRYIGGGEESYGFLWEDFIRDKSSVSACALFCEMAAWALDRGMSVYRLIRSIYLEYGLYYE”: the protein production result is “failed”.

For “SDRKVAREFRHKVDFLIENDAEKDYLYDVLRMYHQTMDVAVLVGDLKLVINEPSRLPLFDAIRPLIPLKHQVEYDQLTPRRSRKLKEVRLDRLHPEGLGLSVRGGLEFGCGLFISHLIKGGQADSVGLQVGDEIVRINGYSISSCTHEEVINLIRTKKTVSIKVRHIGLIPVKSSPDEPLTWQYVDQFVSESGGVRGSLGSPGNRENKEKKVFISLVGSRGLGCSISSGPIQKPGIFISHVKPGSLSAEVGLEIGDQIVEVNGVDFSNLDHKEGRELFMTDRERLAEARQRELQRQELLMQKRLAMESNKILQEQQEMERQRRKEIAQKAAEENERYRKEMEQIVEEEEKFKKQWEEDWGSKEQLLLPKTITAEVHPVPLRKPKYDQGVEPELEPADDLDGGTEEQGEQDFRKYEEGFDPYSMFTPEQIMGKDVRLLRIKKEGSLDLALEGGVDSPIGKVVVSAVYERGAAERHGGIVKGDEIMAINGKIVTDYTLAEADAALQKAWNQGGDWIDLVVAVCPPKEYDDELTFF”, the protein production entry is “failed”.

As for “SDSTAGTDAVAVGGTFQFHSPDGKMEIFYDEADRQQLPDIGGDSLMEEGTQINLSDFENQVVILNAWGQWCAPCRSESDDLQIIHEELQAAGNGDTPGGTVLGINVRDYSRDIAQDFVTDNGLDYPSIYDPPFMTAASLGGVPASVIPTTIVLDKQHRPAAVFLREVTSKDVLDVALPLVDEA”, the protein production result is listed as “not failed”.

For the sequence “SEDINRNPLLPTKEDEKMDGVIYGAYLPNLEKSVIPIGTASESTEPVNRYQIGVNLAGDAWAGYMSPRDNKFNGSKNFTNYFMYENWVNYVYSFMVTDVYSPWMQIKRISQDEGTRNDEIYALAQIIKIAALHRTTDMFGPIPYSQVGKGSFKVAYDSQESVYRSFLKELEEAVQTLDDYSNKSKEVLPAFDIVYNGDVNKWMRFANSLMLRLAIRVRFADAGLAKEYAEKAVKHPAGLINSKELAAQMGKGAGLQMKNPLKVINEEYNDTRMGATIYSYLAGYNDARAAVYFVKNNGFKAVRCGIAKSGDAYNGFTRPNVHEDDPLYWMKASEVCFLKAEGALAGFDMGGSAGDFYNAGIRMSFSENGLDNSSAETYLKDSTRKPANYTDTSNGELSANAPSSITIRWENGATEEEKLERIITQKYLAIFPNGQEAWTEWRRTGYPRQIVVAENKTNSAVLIGNGYDLGGVRRLPYPRTEYEQNGENLHNAISQYLGGVDNAATKVWWDKKSK”, the protein production entry was “not failed”.

For “SEPPKMNPVVEPLSWMLGTWLSDPPGAGTYPTLQPFQYLEEVHISHVGQPMLNFSFNSFHPDTRKPMHRECGFIRLKPDTNKVAFVSAQNTGVVEVEEGEVNGQELCIASHSIARISFAKEPHVEQITRKFRLNSEGKLEQTVSMATTTQPMTQHLHVTYKKVTP”, the protein production result is “not failed”.

Take “SERRYKQLFDSGRDGIFVVQMDEEEGVAQIVEANWSAHEMFGYSQGAFEELAFASLVDKGEREGVERLLKELPLKGGALIESHFVLLEHRSIPIELSIQSFLLEEKRTLYVSARDIT”: the protein production entry is on record as “failed”.

In the case of “SERTELLKPRTLADLIRILHELFAGDEVNVEEVQAVLEAYESNPAEWALYAKFDQYRYTRNLVDQGNGKFNLMILCWGEGHGSSIHDHTDSHCFLKLLQGNLKETLFDWPDKKSNEMIKKSERTLRENQCAYINDSIGLHRVENVSHTEPAVSLHLYSPPFDTCHAFDQRTGHKNKVTMTFHSKFGIRTPFTTSGSLENN”, the protein production entry is reported as “failed”.

“SEVIRSQKRTVSNDVVSTPTLPLYLTAPHMEVRLEEFELFAIDRLRVLKGVSDGLARARNPNEMDDLVETLWKEHMRLSDVSEMINKDIISHFVLRLVYCRSDELKKWFLSMETAPFRHRFRLKKIEEQRAIVGEFGLPYKAVIGAELESLKERLGLVARSHGQISSDVENIYYKVPFEEVPDLVASRRVLLQKGFAFVAGTQLVSLVVTQFRSHLSKALILTNRKWTTTIREREKDRLTPIVEALSTSYLGPDYSQSNEYADISLKDIDQVSKSSFPLCMRHLFEKLREDHHLKHGGRMQLGLFLKGVGLKLDDALAFWREEFTKKVGSERFDKEYAYAIRHNYGKEGKRTDYTPYACSKIITSAPGAGDHHGCPYRHFSEDNLKAALSRMGLSSRGMEDVMDKVRNRHYQLACTLTFEAVYGTSCDTGINHPNQYFEESQKILKSKTPAAPV”: the protein production entry is given as “not failed”.

On to “SFEIGCELEAQRELRAKQTLVGQVIDEDLMSIVYQPVWDIEAMQPLGFECLARFSPLPLRSPDKWFADAAEVGMGVELELHAIRKALQAIGRFPAPIDLSVNASAATILGGDLARLFDGVPLDRLIVEITEHSSVGNYDAILDVLRPLRQRGLRLAVDDAGAGYSSLHHILNMQPDFIKLDIGLTQNIDLDPARKALARALVGFARDTGSRIVAEGVERQSELDALRSIGVKKVQGYLLGRP”, for which the protein production entry was “failed”.

On to “SFQTVPSTAETSAVLLQDSGWDALAQRLALIETAEHSIDIQYYIWNSDASGHYLASRLLAAADRGVKVRVMLDDINLNEREDLLVALNAHPHVEIRVFNPIPTRRGVTKWVNFLGDFSRLNRRMHNKSFTVDGVFSVVGGRNIGDEYFDLSNEINFRDRDVLVRGSVVYDIQTSFIEYWDSRWSYPVDLLAKEASQEPLLQKQPVLDEIDAPVYKNYPA”, for which the protein production result is given as “failed”.

As to “SFRTTKEEVVEKAKAFISAHYTEELNLSVIASQLYVNPFYLRRIFKEETELSPSQYLLKKRIEAALALLVNQEETITDIAFKVGFKSPAHFSTVFRHMIGLPPQKYRES”, the protein production result is “failed”.

Turning to “SFSAPIEDLQVRIAFLDELVEQLNTQLALQTQEIADLKKQMQLLYQRVEASDLSEGIAPFDPNTNKPPHY”, the protein production entry is recorded as “failed”.
